Assay results reported in patent US20150007357A1, “Use Of Humanized Mice To Determine Toxicity” (Massachusetts Institute Of Technology, priority 2011, published 2015).
Entries after “also recorded” stand apart in the source; their conditions may differ.

Assays:
[1] = test system: cytokine-treated humanized mice (NSG engrafted with human HSCs, human IL-15 and Flt-3L plasmids); experiment: Serum human cytokine release after mAb injection in IL-15/Flt-3L cytokine-treated humanized mice; type: in vivo, mouse; settings: for change in serum levels of human cytokines: vs saline control or baseline; for serum levels of human cytokines at 24 hours: 24 hours post-injection
Description: NSG mice were purchased from the Jackson Laboratories and maintained under specific pathogen-free conditions in the animal facilities at Nanyang Technological University and National University of Singapore. To reconstitute mice, newborn pups (less than 48 hours old) were irradiated with 100 cGy using a Gamma radiation source and injected intracardially with CD34+CD133+ cells ([…] cells/recipient). Human IL-15 and human Fltr-3 ligand were cloned separately into pcDNA3.1(+) vector (Invitrogen, USA) as described previously (Chen Q et al. (2009) Proc Natl Acad Sci, USA, 106:21783-21788). For hydrodynamic gene delivery, 12 week-old humice were injected with 50 μg of each plasmid in a total of 2 ml saline within 7 seconds using a 27 gauge needle. All research with human samples and mice was performed in compliance with the institutional guidelines.
(§1) The blood sampling at seven days post-cytokines treatment was used as the time point (−48 hours) for setting the baseline of the production levels of different cytokines and human cells absolute numbers and percentages. […] Blood samples were collected 2 and 24 hours after the mAb treatment, and all injected animals were euthanized at 24 hours.
(§2) Single cell suspensions were prepared from spleen by standard procedures. […] Cells were stained with appropriate antibodies in 100 μl PBS containing 0.2% BSA and 0.05% sodium azide for 30 min on ice. Flow cytometry was performed on a LSRII flow cytometer using the FACSDiva software (BD, Franklin Lakes, N.J.), and samples were analyzed using the Flowjo software. For cytokine detection, the concentration of human IL-2, IL-4, IL-6, IL-8, IL-1β, TNF-α, and IFN-γ were determined in sera using a BD Cytometric Bead Array (CBA) (BD Biosciences, USA). The experiments were conducted according to the manufacturer's recommendation and results were analyzed with the FCAP array software (Soft Flow Hungary, BD Biosciences).
NSG mice were purchased from the Jackson Laboratories and maintained under specific pathogen-free conditions in the animal facilities at Nanyang Technological University and National University of Singapore. To reconstitute mice, newborn pups (less than 48 hours old) were irradiated with 100 cGy using a Gamma radiation source and injected intracardially with CD34+CD133+ cells (1×10^5 cells/recipient). Human IL-15 and human Fltr-3 ligand were cloned separately into pcDNA3.1(+) vector (Invitrogen, USA) as described previously. For hydrodynamic gene delivery, 12 week-old humice were injected with 50 μg of each plasmid in a total of 2 ml saline within 7 seconds using a 27 gauge needle. All research with human samples and mice was performed in compliance with the institutional guidelines.
as §2, with “procedures. The following human conjugated antibodies were used for flow cytometry staining.” for “procedures.”, “IL-2,” for “IL-2, IL-4,”, “TNF-α, IFN-γ” for “TNF-α,”, “mouse IL-2, IL-6, IL-8” for “IFN-γ”

[2] = test system: human T, B, NK cells and monocytes in cytokine-treated humanized mice; experiment: Immunophenotyping of human cell lineages in peripheral blood (flow cytometry) of cytokine-treated humanized mice; type: in vivo, mouse
Description: as §1
as §2, with “procedures. The following human conjugated antibodies were used for flow cytometry staining.” for “procedures.”, “IL-2,” for “IL-2, IL-4,”, “TNF-α, IFN-γ” for “TNF-α,”, “mouse IL-2, IL-6, IL-8” for “IFN-γ”

[3] = test system: cytokine-treated humanized mice; experiment: Liver enzymes (AST, ALT) in cytokine-treated humanized mice; type: in vivo, mouse; settings: 24 hours post-treatment
Description: as §1

PBMCs = settings: incubated in aqueous phase; previous study; cited from earlier work
[4] = test system: cytokine-treated humanized mice; experiment: Serum mouse cytokines (mIL-2, mIFN-γ, mIL-6) in cytokine-treated humanized mice; type: in vivo; settings: mice treated with IL-15 and FLT3L or M-CSF plasmid
Description: (§3) Single cell suspensions were prepared from spleen by standard procedures. The following human conjugated antibodies were used for flow cytometry staining. CD3, CD4, CD8, CD19, CD28, CD45, CD45RO, CCR7 from Biolegend; CD14 and CD56 from BD Biosciences (BD Biosciences, USA) and mouse CD45.1 from eBioscience. Cells were stained with appropriate antibodies in 100 μl PBS containing 0.2% BSA and 0.05% sodium azide for 30 min on ice. Flow cytometry was performed on a LSRII flow cytometer using the FACSDiva software (BD, Franklin Lakes, N.J.), and samples were analyzed using the Flowjo software. For cytokine detection, the concentration of human IL-2, IL-6, IL-8, IL-1β, TNF-α, IFN-γ and mouse IL-2, IL-6, IL-8 were determined in sera using a BD Cytometric Bead Array (CBA) (BD Biosciences, USA). The experiments were conducted according to the manufacturer's recommendation and results were analyzed with the FCAP array software (Soft Flow Hungary, BD Biosciences).

[5] = test system: humanized mice treated with M-CSF human cytokine plasmid; experiment: Serum human cytokine release in humanized mice treated with human M-CSF plasmid; type: in vivo, mouse; settings: 2 hours post-injection
Description: as §1
as §3, with “Biosciences). […]” for “Biosciences).”

[6] = 2 hours post-injection, 1 mg/kg i.v.
[7] = IL-15 and Flt-3L treated mice, 2 hours post-injection, 1 mg/kg i.v.
[8] = 2 and 24 hrs post-injection, 1 mg/kg

Alemtuzumab: humanized anti-CD52 antibody for treating chronic lymphocytic leukemia (Campath, Genzyme)
change in serum levels of human cytokines [1, 6]: increase in the serum levels of IL-2, IL-6, IL-8 and IL-1β | serum levels of human cytokines at 24 hours ([1]; 1 mg/kg i.v.): most cytokines, except IL-1β, had returned to the baseline level | serum levels of human IL-2 ([1]; IL-15 and Flt-3L treated mice, 2 hours post-injection, 1 mg/kg): 0.0316 ng/mL | serum levels of human IL-6 [1, 7]: 0.0192 ng/mL | serum levels of human IL-8 [1, 7]: 0.2241 ng/mL | B cell numbers in peripheral blood [2, 8]: complete depletion | NK cell numbers in peripheral blood [2, 8]: complete depletion | T cell numbers in peripheral blood [2, 8]: complete depletion | monocyte numbers in peripheral blood [2, 8]: complete depletion; also recorded: only residual monocytes cell remaining at 24 hrs | Aspartate aminotransferase (AST) level [3]: did not induce a significatively increase | IL-2 response of PBMCs (PBMCs): 14.0 pg/mL | IL-6 response of PBMCs (PBMCs): 88 pg/mL | IL-8 response of PBMCs (PBMCs): 6050 pg/mL | mouse IL-6 (mIL-6) in sera [4]: increase

OKT3: mouse mAb against human CD3 for suppressing renal allograft rejection (Biolegend)
serum levels of human IL-6 [5]: 1.5128 ng/mL | serum levels of human IL-8 [5]: 0.7226 ng/mL | change in serum levels of human cytokines [1, 6]: significant increase in the circulating levels of IL-2, IL-6, IL-8 and IFN-γ | serum levels of human cytokines at 24 hours ([1]; 1 mg/kg i.v.): IL-2 expression was diminished 24-hours post injection, the other cytokines remained elevated | serum levels of human IL-6 [1, 7]: 0.1318 ng/mL | NK cell numbers in peripheral blood [2, 8]: transient decrease | T cell numbers in peripheral blood [2, 8]: complete depletion | reduction of the CD14+ cells ([2]; 2 hours post-injection): 4 fold | Aspartate aminotransferase (AST) level [3]: did not induce a significatively increase | mouse IL-6 (mIL-6) in sera [4]: increase; also recorded: slightly increase | mouse mIL-2 and mIFN-γ in sera [4]: not
